Source: US20180344870A1 (AGENUS, published 2018)

T1: human-mouse fusion construct 5018 of CD137, on Jurkat cells (human with a murine segment, UniProt Q07011 24-255)
T1 construct: also called mutant 5018; murine switch mutant 5018
T1 chain: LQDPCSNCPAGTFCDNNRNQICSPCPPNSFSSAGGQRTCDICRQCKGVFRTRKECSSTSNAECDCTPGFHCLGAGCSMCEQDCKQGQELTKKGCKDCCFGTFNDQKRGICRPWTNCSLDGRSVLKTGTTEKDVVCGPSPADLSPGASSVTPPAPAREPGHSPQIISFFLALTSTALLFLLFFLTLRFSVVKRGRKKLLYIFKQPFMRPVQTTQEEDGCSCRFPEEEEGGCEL

T2: human-mouse fusion construct 5016 of CD137, on Jurkat cells (human with a murine segment, UniProt Q07011 24-255)
T2 chain: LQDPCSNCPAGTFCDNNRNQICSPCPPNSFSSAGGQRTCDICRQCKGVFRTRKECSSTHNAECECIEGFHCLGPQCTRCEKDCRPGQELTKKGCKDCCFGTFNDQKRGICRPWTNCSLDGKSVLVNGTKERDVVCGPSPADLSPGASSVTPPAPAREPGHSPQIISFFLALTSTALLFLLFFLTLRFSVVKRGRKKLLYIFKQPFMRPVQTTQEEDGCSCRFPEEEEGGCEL

T3: human-mouse fusion construct 5015 of CD137, on Jurkat cells (human with a murine segment, UniProt Q07011 24-255)
T3 construct: also called mutant 5015; murine switch mutant 5015
T3 chain: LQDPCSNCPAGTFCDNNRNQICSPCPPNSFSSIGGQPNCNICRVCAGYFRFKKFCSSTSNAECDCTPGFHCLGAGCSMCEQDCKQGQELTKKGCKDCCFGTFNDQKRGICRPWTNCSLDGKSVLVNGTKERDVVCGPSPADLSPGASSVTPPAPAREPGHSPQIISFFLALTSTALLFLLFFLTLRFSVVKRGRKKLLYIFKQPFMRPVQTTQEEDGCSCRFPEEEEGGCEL

T4: human-mouse fusion construct 5017 of CD137, on Jurkat cells (human with a murine segment, UniProt Q07011 24-255)
T4 construct: on Jurkat cells
T4 chain: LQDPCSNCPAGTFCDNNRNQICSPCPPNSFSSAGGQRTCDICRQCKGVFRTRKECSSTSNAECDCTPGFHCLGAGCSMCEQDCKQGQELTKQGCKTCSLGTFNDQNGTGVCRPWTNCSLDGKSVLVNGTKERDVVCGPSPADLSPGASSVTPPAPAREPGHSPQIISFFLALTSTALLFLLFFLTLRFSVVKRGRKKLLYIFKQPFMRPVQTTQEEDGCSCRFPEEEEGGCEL

T5: mouse-human fusion construct 5015 (extracellular domain, Gly-Ser linker, 6×His tag) (murine with a human segment, UniProt P20334 24-187)
T5 construct: also called mCD137-human53-80; not shown: Gly-Ser linker
T5 chain (part 1 of 2): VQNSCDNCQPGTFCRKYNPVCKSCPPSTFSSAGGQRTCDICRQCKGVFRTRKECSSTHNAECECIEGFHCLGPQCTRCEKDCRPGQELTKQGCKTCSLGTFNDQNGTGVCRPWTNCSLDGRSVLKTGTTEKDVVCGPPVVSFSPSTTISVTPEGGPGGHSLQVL
T5 chain (part 2 of 2): HHHHHH

T6: mouse-human fusion construct 5017 (extracellular domain, Gly-Ser linker, 6×His tag) (murine with a human segment, UniProt P20334 24-187)
T6 construct: not shown: Gly-Ser linker
T6 chain (part 1 of 2): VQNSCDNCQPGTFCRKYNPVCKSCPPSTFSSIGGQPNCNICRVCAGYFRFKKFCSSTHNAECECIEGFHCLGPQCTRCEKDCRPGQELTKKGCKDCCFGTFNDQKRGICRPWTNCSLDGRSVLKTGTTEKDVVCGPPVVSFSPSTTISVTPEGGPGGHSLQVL
T6 chain (part 2 of 2): HHHHHH

B1: BA001 (IgG1) (antibody, V domains shown)
VH: not shown
VL: SYVLTQPPSVSVAPGETARITCGGDDIGDKRVHWYQKKPDQAPVLVVYEDRYRPSGIPERISGSNSGNTATLTLSRVEAGDEADYYCQVWDSSSDHPGVFGGGTQLIILG
modifications: N-terminal X = glutamine (Q) or pyroglutamate (pE)
notes: Human IgG1 with lambda light chain; also called anti-CD137 antibody BA001
B2: BA049 (IgG1 format) (antibody, V domains shown)
VH: not shown
VL: SYVLTQPPSVSVAPGETARITCGGDDIGDKRVHWYQKKPDQAPVLVVYEDRYRPSGIPERISGSNSGNTATLTLSRVEAGDEADYYCQVWDSSSDHPGVFGGGTQLIILG
modifications: N-terminal X = glutamine (Q) or pyroglutamate (pE)
B3: BA052 (IgG1 format) (antibody, V domains shown)
VH: QVQLVQSGAEVKKPGASVKVSCKASGYNFSGYYMHWVRQAPGQGLEWMGWINPNSGGTNYAQKFQGRVTITRDTSISTAYMELSRLRSDDTAVYYCAREPGYYGSGLDYWGQGTLVTVSS
VL: SYVLTQPPSVSVAPGETARITCGGDDIGDKRVHWYQKKPDQAPVLVVYEDRYRPSGIPERISGSNSGNTATLTLSRVEAGDEADYYCQVWYSSPDHPGVFGGGTQLIILG
modifications: N-terminal X = glutamine (Q) or pyroglutamate (pE)
B4: BA050 (IgG1 format) (antibody, V domains shown)
VH: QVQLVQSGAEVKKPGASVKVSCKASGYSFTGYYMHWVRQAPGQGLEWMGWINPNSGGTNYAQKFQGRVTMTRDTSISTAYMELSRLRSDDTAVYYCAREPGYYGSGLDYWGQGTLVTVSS
VL: SYVLTQPPSVSVAPGETARITCGGDDIGDKRVHWYQKKPDQAPVLVVYEDRYRPSGIPERISGSNSGNTATLTLSRVEAGDEADYYCQVWNSSSDHPGVFGGGTQLIILG
modifications: N-terminal X = glutamine (Q) or pyroglutamate (pE)
B5: BA051 (IgG1 format) (antibody, V domains shown)
VH: not shown
VL: SYVLTQPPSVSVAPGETARITCGGDDIGDKRVHWYQKKPDQAPVLVVYEDRYRPSGIPERISGSNSGNTATLTLSRVEAGDEADYYCQVWDSSSDYPGVFGGGTQLIILG
modifications: N-terminal X = glutamine (Q) or pyroglutamate (pE)

Assays:
[1] = molecular target: T1, human-mouse fusion construct 5018 of …; experiment: flow cytometry on transfected Jurkat cells, anti-human IgG-PE detection
Experimental: (§1) These engineered mutant cell lines were used to test whether anti-CD137 antibody can bind to particular switch mutants. Absence of binding would thereby indicate possible epitope locations. The cell binding assays were performed generally as described in Section 1.1. […] The cells were then washed and suspended in 80 μl of 2% paraformaldehyde (Electron Microscopy Sciences) prepared in PBS. Data were collected with BD FACS Canto and analyzed using BD FACSDiva software.

[2] = molecular target: T2, human-mouse fusion construct 5016 of …; experiment: as above
Experimental: as §1

[3] = molecular target: T3, human-mouse fusion construct 5015 of …; experiment: as above
Experimental: as §1

[4] = molecular target: T7, “4-aa human to mouse” CD137 protein (human with a murine segment, UniProt Q07011 24-186); experiment: SPR, antibody captured by anti-human Fab, CD137 protein as analyte
T7 construct: also called “human to mouse” CD137 chimeric protein; not shown: Gly-Ser linker
Experimental: (§2) The chimeric CD137 proteins described above were tested in a surface plasmon resonance (SPR) assay. Briefly, a CM5 sensor chip was first coated with an anti-human Fab antibody using the amine coupling kit. […] Sensorgrams were recorded during both the association and dissociation phases.

[5] = molecular target: T8, “4-aa mouse to human” CD137 protein (murine with a human segment, UniProt P20334 24-187); experiment: SPR, BA001 captured by anti-human Fab, chimeric protein at 60 nM as analyte
T8 construct: also called “mouse to human” CD137 chimeric protein; not shown: Gly-Ser linker
Experimental: as §2

[6] = molecular target: T4, human-mouse fusion construct 5017 of …; experiment: flow cytometry on transfected Jurkat cells, serial dilutions of antibody
Experimental: as §1

[7] = molecular target: T9, human CD137 expressed on cells (human, UniProt Q07011 24-255); experiment: flow cytometry on engineered Jurkat cells, anti-human lambda-PE detection
T9 construct: also called 4-1BB; TNFRSF9

[8] = molecular target: T5, mouse-human fusion construct 5015 …; experiment: ELISA (DELFIA europium read-out), antigen coated at 5 µg/ml
Experimental: (§3) Specifically, 50 μl of 5 μg/ml of each antigen diluted in 1×PBS pH 7.4 (Gibco™, Cat no. 10010056) was added to each well in a Thermo Scientific™ Black 96-Well Immuno Plate (Thermofisher Scientific, Cat no. 437111) and incubated at 4° C. overnight. The plate was washed three times with PBS using the Biotek 405TS microplate washer with Biostack3 microplate stacker. The plate was blocked by incubating with 300 ul/well of 3% Milk Powder in PBS (Marvel dried skimmed milk powder) for 1 hour at room temperature, and were washed three times with 1×PBS. The antibodies titrated in 3% M-PBS (Milk Powder in 1×PBS) were added to the plate and incubated for 1 hour at room temperature. The plate was washed three times with 1×PBS with 0.1% Tween20 (Sigma Aldrich, Cat No. P1379) and three times with 1×PBS using the plate washer. 50 μl Biotin-SP (long spacer) AffiniPure Goat Anti-Human IgG, Fcγ Fragment Specific (Jackson Immuno Research, Code:109-065-098, Lot no. 123909) diluted at 1:2000 in 3% M-PBS was added to each well and incubated for 1 hour at room temperature. The plate was washed three times with 1×PBS with 0.1% Tween20 and three times with 1×PBS using the plate washer. For detection, 50 μl of DELFIA® Europium-labeled streptavidin (PerkinElmer, Part no. 1244-360, Lot no. 2195997) diluted in the DELFIA® Assay buffer (PerkinElmer, Part no. 4002-0010, Lot no. 646702) at 1:500 was added to each well and incubated for 1 hour at room temperature. The plate was washed three times with 1×PBS with 0.1% Tween20 and three times with PBS using the plate washer.

[9] = molecular target: T10, extracellular domain of human CD137 with Gly-Ser linker and 6×His tag (human, UniProt Q07011 24-186); experiment: ELISA (DELFIA europium read-out), antigen coated at 5 µg/ml, IgG1 titrated
T10 construct: also called human CD137 (ELISA antigen); not shown: Gly-Ser linker
Experimental: as §3

[10] = molecular target: T6, mouse-human fusion construct 5017 …; experiment: as above
Experimental: as §3

| Binder | binding result [1] | binding result [2] | binding result [3] | binding result [4] | binding result [5] | binding result [6] | binding result [7] | binding result [8] | binding result [9] | binding result [10] |
| --- | --- | --- | --- | --- | --- | --- | --- | --- | --- | --- |
| B1 | binds | binds | binds | no binding (tested: 60 nM) | binds | no binding | binds |  |  |  |
| B2 |  |  |  |  |  |  |  | no binding | binds | binds |
| B3 |  |  |  |  |  |  |  | no binding | binds | binds |
| B4 |  |  |  |  |  |  |  | no binding | binds | binds |
| B5 |  |  |  |  |  |  |  | no binding | binds | binds |
